These results are taken from publication PMC8935074, “Phosphorylated and Phosphomimicking Variants May Differ—A Case Study of 14-3-3 Protein” (Frontiers in Chemistry, 2022).

Broadly, the Kd is the free concentration of one partner at which half of the binding sites on the other are occupied at equilibrium, for simple one-to-one binding. For orientation: stoichiometry N means a count of units in the complex or per binding partner. As usually defined, the koff is a measure of how fast the partners let go of each other. Read a low koff as slow dissociation.

Data set [1] deals with 14-3-3ζ (UniProt P63104). Kind of data set: SEC-RALS, 36.5 μM. The conditions noted are these: sites S58.
The target in data set [2] is 14-3-3ζ (UniProt P63104). Briefly: AUC sedimentation velocity, 36.5 μM. To be noted: sites S58.
Data set [3] addresses 14-3-3ζ phosphorylated at Ser58 (UniProt P63104). Kind of data set: SEC-RALS; 5 mg/mL (183 μM) pζ and ζm in PBS pH 7.4, 20°C, triplicates; KD of dimerisation estimated from the protein percentage in the dimeric and monomeric peaks; dimer to monomers.
In data set [4] the target is 14-3-3ζ WT (UniProt P63104). Kind of data set: SEC-RALS; size-exclusion chromatography with right-angle light scattering, 1 mg/mL (36.5 μM) protein in PBS pH 7.4, Zenix SEC 300 column, 20°C; dimer to monomers.
In data set [5] the target is 14-3-3ζ WT (UniProt P63104). Kind of data set: AUC; sedimentation velocity, 1 mg/mL (36.5 μM) protein in 50 mM Tris-HCl, 300 mM NaCl, 3 mM NaN3, pH 8, 20°C, 50,000 RPM, c(s) distribution; dimer to monomers.
Data set [6] concerns the target 14-3-3ζ L12E_M78K (UniProt P63104). Briefly: SEC-RALS; 5 mg/mL (183 μM) pζ and ζm in PBS pH 7.4, 20°C, triplicates; KD of dimerisation estimated from the protein percentage in the dimeric and monomeric peaks; dimer to monomers.
Data set [7] deals with the molecule itself. Kind of data set: FRET; 15°C.
Data set [8] concerns the molecule itself. Briefly: FRET or BRET; kinetic FRET assay in a cuvette: 200 nM AF647-labelled plus 200 nM AF488-labelled ζ_S58E_Ntail, then 100-fold excess of non-labelled ζ_S58E; 20 mM sodium phosphate pH 6.8, 15°C; profile fitted for KD and koff; dimer to monomers. (Bioluminescence resonance energy transfer reports proximity on the nanometre scale.)
Data set [9] concerns the molecule itself. Briefly: SEC-RALS; 4.5 mg/mL (164 μM) ζ_S58D and ζ_S57D_S58D in PBS pH 7.4, 20°C, triplicates; KD of dimerisation calculated from the observed MW as weighted average of dimer and monomer; dimer to monomers.
Data set [10] concerns the molecule itself. Briefly: AUC; sedimentation velocity, 1 mg/mL (36.5 μM) protein in 50 mM Tris-HCl, 300 mM NaCl, 3 mM NaN3, pH 8, 20°C, 50,000 RPM, c(s) distribution; dimer to monomers.
Setting [11] is: reference: non-phosphorylated ζ.

With 14-3-3ζ (from UniProt P63104) ζ_S58E, the “other: apparent MW” value in data set [1] (reference: ζ wild type) is given as “weaker; reference 54.5”; in [2] (reference: ζ wild type), “same; reference 56.4”.

For the molecule “14-3-3ζ phosphorylated at Ser58 (from UniProt P63104 1-245) (natural protein)”, in data set [3], the dissociation constant (Kd) was 7600 µM.

For the molecule “14-3-3ζ WT (from UniProt P63104 1-245) (natural protein)”, the stoichiometry N in data set [4] and in data set [5] was 2 throughout.

With “14-3-3ζ (from UniProt P63104) pζ (PKA co-expressed, purified pS58 form)”, the “other: apparent MW” value in [1] (setting [11]) is on record as “weaker; reference 54.5”; in [2] (setting [11]), “weaker; reference 56.4”.

Consider “14-3-3ζ (from UniProt P63104) ζ_S57D_S58D”, for which the “other: apparent MW” value in data set [1] (reference: ζ wild type) is given as “weaker; reference 54.5”; in data set [2] (reference: ζ wild type), “weaker; reference 56.4”.

“14-3-3ζ L12E_M78K (from UniProt P63104 1-245) (natural protein)”: in data set [6], the dissociation constant Kd was 4600 µM.

In the case of 14-3-3ζ (from UniProt P63104) ζ_S58D, the results for the “other: apparent MW” value in data set [1] (reference: ζ wild type) and in data set [2] (reference: ζ wild type) were “weaker; reference 54.5” and “weaker; reference 56.4”, respectively.

B1: ζ_S58E_Ntail, fluorescently labelled (natural protein)
chain: SVDACKGSSGGMDKNELVQKAKLAEQAERYDDMAAAMKSVTEQGAELSNEERNLLSVAYKNVVGARRSEWRVVSSIEQKTEGAEKKQQMAREYREKIETELRDICNDVLSLLEKFLIPNASQAESKVFYLKMKGDYYRYLAEVAAGDDKKGIVDQSQQAYQEAFEISKKEMQPTHPIRLGLALNFSVFYYEILNSPEKAASLAKTAFDEAIAELDTLSEESYKDSTLIMQLLRDNLTLWTSDTQGDEAEAGEGGEN
modifications: Cys5 (of the added N-terminal tail) labelled with AlexaFluor647-C5-maleimide (AF647) in one preparation and AlexaFluor488-C2-maleimide (AF488) in the other
In turn, B1 displayed a dissociation rate constant (koff) in [7] of 0.731 s⁻¹. Also, the Kd in data set [8] was 0.35 ± 0.25 µM.

B2: 14-3-3ζ S58D (natural protein, UniProt P63104 1-245, looked up)
chain: MDKNELVQKAKLAEQAERYDDMAAAMKSVTEQGAELSNEERNLLSVAYKNVVGARRSDWRVVSSIEQKTEGAEKKQQMAREYREKIETELRDICNDVLSLLEKFLIPNASQAESKVFYLKMKGDYYRYLAEVAAGDDKKGIVDQSQQAYQEAFEISKKEMQPTHPIRLGLALNFSVFYYEILNSPEKAASLAKTAFDEAIAELDTLSEESYKDSTLIMQLLRDNLTLWTSDTQGDEAEAGEGGEN
notes: 14-3-3ζ protein with C25A C189A and the phosphomimicking mutation S58D; source: E. coli BL21(DE3) CodonPlus RIL, purified (protocol of Hritz et al., 2014)
Take B2: the Kd in data set [9] is 132 ± 7 µM.

B3: 14-3-3ζ S58E (natural protein, UniProt P63104 1-245, looked up)
chain: MDKNELVQKAKLAEQAERYDDMAAAMKSVTEQGAELSNEERNLLSVAYKNVVGARRSEWRVVSSIEQKTEGAEKKQQMAREYREKIETELRDICNDVLSLLEKFLIPNASQAESKVFYLKMKGDYYRYLAEVAAGDDKKGIVDQSQQAYQEAFEISKKEMQPTHPIRLGLALNFSVFYYEILNSPEKAASLAKTAFDEAIAELDTLSEESYKDSTLIMQLLRDNLTLWTSDTQGDEAEAGEGGEN
notes: 14-3-3ζ protein with C25A C189A and the phosphomimicking mutation S58E; source: E. coli BL21(DE3) CodonPlus RIL, purified (protocol of Hritz et al., 2014)
Regarding B3, the “stoichiometry N” value in data set [10] was 2.

B4: 14-3-3ζ S57D_S58D (natural protein, UniProt P63104 1-245, looked up)
chain: MDKNELVQKAKLAEQAERYDDMAAAMKSVTEQGAELSNEERNLLSVAYKNVVGARRDDWRVVSSIEQKTEGAEKKQQMAREYREKIETELRDICNDVLSLLEKFLIPNASQAESKVFYLKMKGDYYRYLAEVAAGDDKKGIVDQSQQAYQEAFEISKKEMQPTHPIRLGLALNFSVFYYEILNSPEKAASLAKTAFDEAIAELDTLSEESYKDSTLIMQLLRDNLTLWTSDTQGDEAEAGEGGEN
notes: also called double phosphomimicking mutant; source: E. coli BL21(DE3) CodonPlus RIL, purified (protocol of Hritz et al., 2014)
For the molecule B4, in data set [9], the equilibrium dissociation constant (Kd) is 348 ± 19 µM.
